{"source": "patent US20030027338A1", "about": "(BROOKHAVEN SCIENCE ASSOCIATES, published 2003)", "binders": {"B1": {"name": "his-tagged D1 (refolded amino-terminal IgV domain of human CAR) (receptor)", "chain": "MGITTPEEMIEKAKGETAYLPCKFTLSPEDQGPLDIEWLISPADNQKVDQVIILYSGDKIYDDYYPDLKGRVHFTSNDLKSGDASINVTNLQLSDIGTYQCKVKKAPGVANKKIHLVVLVKPSGA", "notes": "range 20-144; also called CAR D1; CARD1; not shown: pET15b vector-encoded amino-terminal hexahistidine tag"}, "B2": {"name": "biotinylated CARD1 protein (receptor)", "chain": "B1 chain with M1L, G2S", "modifications": "biotinylated with sulfo-NHS-LC biotin (sites not given)", "notes": "domain: D1"}, "B3": {"name": "Ad12 knob (recombinant adenovirus type 12 fiber knob domain, his-tag removed by thrombin) (other)", "chain": "SNTPYDPLTLWTTPDPPPNCSLIQELDAKLTLCLTKNGSIVNGIVSLVGVKGNLLNIQSTTTTVGVHLVFDEQGRLITSTPTALVPQASWGYRQGQSVSTNTVTNGLGFMPNVSAYPRPNASEAKSQMVSLTYLQGDTSKPITMKVAFNGITSLNGYSLTFMWSGLSNYINQPFSTPSCSFSYITQE", "notes": "range 401-587; Expressed from pET15b in E. coli; The hexahistidine tag was cleaved with thrombin; Trimer by SDS-PAGE, STEM (60.6 kDa) and gel filtration; also called Ad12 fiber knob"}, "B4": {"name": "his-tagged D1/D2 (refolded entire extracellular region of human CAR, IgV+IgC2 domains) (receptor)", "chain": "MGITTPEEMIEKAKGETAYLPCKFTLSPEDQGPLDIEWLISPADNQKVDQVIILYSGDKIYDDYYPDLKGRVHFTSNDLKSGDASINVTNLQLSDIGTYQCKVKKAPGVANKKIHLVVLVKPSGARCYVDGSEEIGSDFKIKCEPKEGSLPLQYEWQKLSDSQKMPTSWLAEMTSSVISVKNASSEYSGTYSCTVRNRVGSDQCLLRLNVVPPSNKAG", "notes": "range 20-237; also called CAR D1/D2; CARD1/D2; not shown: pET15b vector-encoded amino-terminal hexahistidine tag"}, "B5": {"name": "sD1 (soluble D1 of human CAR with 22 amino acid carboxy-terminal extension) (receptor)", "chain": "MGITTPEEMIEKAKGETAYLPCKFTLSPEDQGPLDIEWLISPADNQKVDQVIILYSGDKIYDDYYPDLKGRVHFTSNDLKSGDASINVTNLQLSDIGTYQCKVKKAPGVANKKIHLVVLVKPSGALEDPAANKARKEAELAAATAEQ", "notes": "range 20-144; No hexahistidine tag; Used as a partially purified preparation; also called pET15b-sD1 product"}}, "key": {"[1]": {"biological_target": "T1, purified Ad2 hexon protein (adenovirus type 2, UniProt P03277 2-968)", "T1 construct": "Included as a specificity control in the pull-down", "T1 sequence (P03277 2-968 limits assumed)": "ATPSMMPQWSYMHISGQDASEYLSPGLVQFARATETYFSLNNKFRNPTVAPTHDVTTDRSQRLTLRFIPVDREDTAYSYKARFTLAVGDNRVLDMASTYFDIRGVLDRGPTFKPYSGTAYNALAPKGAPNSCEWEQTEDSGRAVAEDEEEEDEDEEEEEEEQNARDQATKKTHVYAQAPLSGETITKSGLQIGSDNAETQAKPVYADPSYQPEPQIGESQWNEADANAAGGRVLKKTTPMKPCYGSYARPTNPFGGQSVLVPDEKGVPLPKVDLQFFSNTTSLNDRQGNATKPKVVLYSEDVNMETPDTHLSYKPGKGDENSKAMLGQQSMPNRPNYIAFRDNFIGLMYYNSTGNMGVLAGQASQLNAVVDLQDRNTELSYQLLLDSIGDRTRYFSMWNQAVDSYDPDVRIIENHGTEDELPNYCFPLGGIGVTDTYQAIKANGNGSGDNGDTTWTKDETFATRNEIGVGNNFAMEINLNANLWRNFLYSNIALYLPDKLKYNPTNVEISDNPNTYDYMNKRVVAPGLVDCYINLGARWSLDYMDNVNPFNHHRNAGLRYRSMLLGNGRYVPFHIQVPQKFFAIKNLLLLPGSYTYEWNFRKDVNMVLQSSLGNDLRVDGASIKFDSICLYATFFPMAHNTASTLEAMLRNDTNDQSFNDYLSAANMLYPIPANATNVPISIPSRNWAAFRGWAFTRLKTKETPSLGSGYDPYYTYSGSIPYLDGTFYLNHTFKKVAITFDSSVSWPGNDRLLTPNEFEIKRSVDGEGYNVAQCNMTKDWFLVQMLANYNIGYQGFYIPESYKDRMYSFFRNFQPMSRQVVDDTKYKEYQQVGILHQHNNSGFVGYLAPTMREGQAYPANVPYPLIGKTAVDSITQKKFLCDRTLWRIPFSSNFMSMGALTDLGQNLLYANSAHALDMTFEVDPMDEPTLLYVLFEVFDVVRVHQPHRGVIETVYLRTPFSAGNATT", "test": "Ni-NTA pull-down with his-tagged D1, SDS-PAGE of bead eluate"}, "[2]": {"biological_target": "T2, Ad12 knob mutant P417E/P418A (his-tagged) (adenovirus serotype 12, UniProt P36711 401-587)", "T2 construct": "range 401-587; AB loop; also called double substitution P417E/P418A; not shown: pET15b vector-encoded N-terminal hexahistidine tag", "T2 sequence": "B3 chain with P17E, P18A", "test": "dot blot: his-tagged knob on nitrocellulose (5 µg per dot) probed with biotinylated CARD1, chemiluminescence; text: abrogated CARD1 binding"}, "[3]": {"biological_target": "B4", "test": "Ni-NTA pull-down with his-tagged D1/D2, SDS-PAGE of bead eluate"}, "[4]": {"biological_target": "T1, purified Ad2 hexon protein", "test": "Ni-NTA pull-down with his-tagged D1/D2, SDS-PAGE of bead eluate"}, "[5]": {"biological_target": "T3, his-tagged Ad12 knob (wild type) (adenovirus serotype 12, UniProt P36711 401-587)", "T3 construct": "range 401-587; Cloned between the NdeI and BamHI sites of pET15b; tag left on; also called Purified, his-tagged Ad12 knob; wild-type his-tagged knob protein; not shown: pET15b vector-encoded N-terminal hexahistidine tag", "T3 sequence": "B3 chain", "test": "Ni-NTA column capture of his-tagged knob mixed with sD1, EDTA elution, SDS-PAGE"}}, "note": "Positions count from the first letter of the chain named.", "data": [{"binder": "B1", "values": [{"measurement": "binding result", "setting": "[1]", "value": "no binding"}]}, {"binder": "B2", "values": [{"measurement": "binding result", "setting": "[2]", "value": "no binding (tested: 5 µg/ml biotinylated CARD1)"}]}, {"binder": "B3", "values": [{"measurement": "binding result", "setting": "[3]", "value": "binds"}]}, {"binder": "B4", "values": [{"measurement": "binding result", "setting": "[4]", "value": "no binding"}]}, {"binder": "B5", "values": [{"measurement": "binding result", "setting": "[5]", "value": "binds"}]}]}
